Experimental data taken from the nanobody polyreactivity screen of Harvey et al. (2022).

Assay: yeast display, Sf9 membrane polyspecificity reagent, FACS + sequencing; frameworks hold sequencing errors
Method in brief: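 Galactose induction of a Saccharomyces cerevisiae BJ5465 synthetic nanobody display library ran 36–48 hours. The cells were then stained for 1 hour at 4 °C with 10% biotinylated, detergent-solubilized Sf9 membrane reagent, pulled down on streptavidin microbeads and FACS-sorted into low and high (top ~1%) gates on expression and reagent-binding fluorescence. Labels for polyreactivity follow the gate of origin.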

## QVQLVESGGGLVQAGGSLRLSCAASGFTFVINDMGWNRQAPGKERELVADITSGGDTYYADSVKGRFTISRDNAKNTVDLQMNSLKPEDTAVYYCAADIYPDWIYLLYGYWGQGTQVTVSS
  polyreactivity (PSR sort gate): low polyreactivity

## QVQLVESGGGLVQAGGSLRLSCAASGFTFVKNAMGWYRQAPGKERELVAALSSRGGSTYYADSVKGRFTISRDNAKNTVYLQMNSLKPEDTAVYYCATERERTMGYWGQGTQVTVSS
  polyreactivity (PSR sort gate): high polyreactivity

## QVQLVESGGGLVQAGGSLRLSCAASGFTFVPYAMGWYRQAPGKERELVAAISGSGGSTYYADSVKGRFTISRDNAKNTVYLQMNSLKPEDTAVYYCNADRRWAYYWGQGTQVTVSS
  polyreactivity (PSR sort gate): high polyreactivity

## QVQLVESGGGLVQAGGSLRLSCAASGFTFVRYAMGWYRQAPGKERELVAAISSGGRTYYADSVKGRFTISRDNAKNTVYLQMNSLKPEDTAVYYCAADTKFGYGYWGQGTQVTVSS
  polyreactivity (PSR sort gate): high polyreactivity

## QVQLVESGGGLVQAGGSLRLSCAASGFTFVRYAMGWYRQAPGKERELVAAISSGGRTYYADSVKGRFTISRDNAKNTVYLQMNSLKPEDTAVYYCAAEKVGTRPSRDYDYWGQGTQVTVSS
  polyreactivity (PSR sort gate): high polyreactivity

## QVQLVESGGGLVQAGGSLRLSCAASGFTFVRYAMGWYRQAPGKERELVAAISSSGSSTYYADSVKGRFTISRDHEKNTVYLQMNSLKPEDTAVYYCNARAGRGEDYWGQGTQVTVSS
  polyreactivity (PSR sort gate): low polyreactivity

## QVQLVESGGGLVQAGGSLRLSCAASGFTFVRYAMGWYRQAPGKESEFVASISARGGNTFYADSVKGRFTISRDNAKNTVYLQMNSLKPEDTAVYYCAKPGPYGTGYGYWGQGTQVTVSS
  polyreactivity (PSR sort gate): high polyreactivity

## QVQLVESGGGLVQAGGSLRLSCAASGFTFVRYVMGWYRQAPGKERELVAAISRSGGSTHYADSVKGRFTISRDNAKNTVYLQMNSLKPEDTAVYYCAAASPRWPGQGDYWGQGTQVTVSS
  polyreactivity (PSR sort gate): high polyreactivity

## QVQLVESGGGLVQAGGSLRLSCAASGFTFVRYVMGWYRQAPGKERELVAAISRSGGSTHYADSVKGRFTISRDNAKNTVYLQMNSLKPEDTAVYYCADASPRWPGQGDYWGQGTQVTVSS
  polyreactivity (PSR sort gate): high polyreactivity

## QVQLVESGGGLVQAGGSLRLSCAASGFTFVSNAMGWYRQAPGKERELVAVISSGGSTTYADSVKGRFTISRDNAKNTVYLQMNSLKPEDTAVYYCATTNYQDSYEGGDYWGQGTQVTVSS
  polyreactivity (PSR sort gate): low polyreactivity

## QVQLVESGGGLVQAGGSLRLSCAASGFTFVSYAMGWYRQAPGKERELVASITWTGGSTYYADSVKGRFTISRDNAKNTVYLQMNSLKPEDTAVYYDYWGQGTQVTVSS
  polyreactivity (PSR sort gate): low polyreactivity

## QVQLVESGGGLVQAGGSLRLSCAASGFTFVTNAMGWYRQAPGKERELVAAISWNDDDTYYADSVKGRFTISRDNAKNTVYLQMNSLKPEDTAVYYCAKDEYRVKWWGWDIYDYWGQGTQVTVSS
  polyreactivity (PSR sort gate): low polyreactivity

## QVQLVESGGGLVQAGGSLRLSCAASGFTFVWYTMGWYRQAPGKERELVAAISSSGGTTYYADSVKGRFTISRDNAKNTVYLQMNSLKPEDTAVYYCNVAYFYTTPTRGYNYWGQGTQVTVSS
  polyreactivity (PSR sort gate): high polyreactivity

## QVQLVESGGGLVQAGGSLRLSCAASGFTFVYNAMGWYRPAPGKERELVAAITSGGNTYYADSVKGRFTISRDNAKNTVYLQMNSLKPEDTAVYYCAKRGYGRYYAYDYWGQGTQVTVSS
  polyreactivity (PSR sort gate): high polyreactivity

## QVQLVESGGGLVQAGGSLRLSCAASGFTFVYSVMGWYRQAPGKERELVAAINAGGGSTYYADSVKGRFTISRDNAKNTVYLQMNSLKPEDTAVYYCNARVRVRLGRNWSSYYYWGQGTQVTVSS
  polyreactivity (PSR sort gate): high polyreactivity

## QVQLVESGGGLVQAGGSLRLSCAASGFTFVYYAMGWYRQAPGKEREFVATISSRGDSTYYADSVKGRFTISRDNAKNTVYLQMNSLKPEDTAVYYCAADYDRKTRYGYLGQGTQVTVSS
  polyreactivity (PSR sort gate): low polyreactivity

## QVQLVESGGGLVQAGGSLRLSCAASGFTFVYYAMGWYRQAPGKERELVAAISRGGSTYYADSVKGRFTISRDNAQNPVYLQMNSLKPEDTAVYYCNAKKSGHYVSYPAYDYWGQGTQVTVSS
  polyreactivity (PSR sort gate): low polyreactivity
